This is an account of results in patent US20100150918A1 (MICROMET, published 2010).

For test [1], the target named is T1, 1-27 CD3-EpCAM, human 27 mer (human; cynomolgus).
T1 construct: On transfected cells; also called N-terminal amino acids 1-27 of human CD3 epsilon fused to Flag tagged cynomolgus EpCAM
T1 chain: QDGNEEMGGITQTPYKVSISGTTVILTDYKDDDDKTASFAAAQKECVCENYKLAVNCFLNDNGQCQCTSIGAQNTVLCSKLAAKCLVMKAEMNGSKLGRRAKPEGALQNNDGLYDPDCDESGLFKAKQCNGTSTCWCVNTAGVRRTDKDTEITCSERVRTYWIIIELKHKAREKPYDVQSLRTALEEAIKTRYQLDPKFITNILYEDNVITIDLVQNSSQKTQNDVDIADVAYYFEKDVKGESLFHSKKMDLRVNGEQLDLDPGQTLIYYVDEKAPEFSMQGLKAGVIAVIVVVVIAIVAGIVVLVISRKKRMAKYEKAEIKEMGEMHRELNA
Nature of the test: FACS 293-HEK transfectant.

Test [2] addresses T2, 1-27 CD3-Fc (human).
T2 construct: also called 27 aa huCD3E; human CD3 epsilon (aa 1-27)-Fc fusion protein
Nature of the test: ELISA, captured 1-27 CD3-Fc. On the technique in general: In an ELISA, binding on a coated surface is turned into a signal by an enzyme label.

Test [3] deals with T3, 1-27 CD3-EpCAM, swine 27 mer (domestic swine (Sus scrofa); cynomolgus).
T3 construct: Negative control, on transfected cells; also called 1-27 N-terminal CD3 epsilon of swine fused to cynomolgus EpCAM
T3 chain: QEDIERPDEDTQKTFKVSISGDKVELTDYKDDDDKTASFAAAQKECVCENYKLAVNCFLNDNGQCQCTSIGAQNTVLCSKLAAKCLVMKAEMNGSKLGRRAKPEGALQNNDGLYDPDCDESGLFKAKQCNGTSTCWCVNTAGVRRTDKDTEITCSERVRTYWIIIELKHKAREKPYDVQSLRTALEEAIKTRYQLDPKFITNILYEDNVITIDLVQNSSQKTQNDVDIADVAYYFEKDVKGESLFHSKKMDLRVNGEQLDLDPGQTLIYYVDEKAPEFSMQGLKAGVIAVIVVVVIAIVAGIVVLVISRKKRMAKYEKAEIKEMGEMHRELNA
Description: FACS on 293-HEK transfectants.

The target of test [4] is T2, 1-27 CD3-Fc. Nature of the test: SPR (Biacore), 1-27 CD3-Fc immobilised. In general terms: Surface plasmon resonance follows binding to a sensor surface in real time, without labels.
The target in test [5] is T4, human CD3 (native, on HPB-ALL cells or human PBMC) (human, UniProt P07766 23-207).
T4 construct: whole, on cells; Other chains of the CD3/TCR complex are present on the cells; also called human CD3 epsilon; native CD3 on intact T cells
Nature of the test: FACS HPB-ALL.

T4 sequence (P07766 23-207): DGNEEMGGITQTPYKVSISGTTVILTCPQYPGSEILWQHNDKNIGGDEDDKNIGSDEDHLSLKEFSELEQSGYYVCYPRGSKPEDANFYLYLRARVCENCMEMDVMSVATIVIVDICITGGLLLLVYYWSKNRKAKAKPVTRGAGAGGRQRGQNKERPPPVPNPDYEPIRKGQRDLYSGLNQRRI

B1: E2M HLP (scFv)
scFv: EVQLLESGGGLVQPGGSLKLSCAASGFTFNGYAMNWVRQAPGKGLEWVARIRSKYNNYATYYADSVKERFTISRDDSKNTAYLQMNNLKTEDTAVYYCVRHRNFGNSYLSWFAYWGQGTLVTVSSGGGGSGGGGSGGGGSELVVTQEPSLTVSPGGTVTLTCRSSTGAVTSGYYPNWVQQKPGQAPRGLIGATDMRPSGTPARFSGSLLGGKAALTLSGVQPEDEAEYYCALWYSNRWVFGGGTKLTVL
notes: crude periplasmic preparation, Flag and His6 tagged
With B1, the binding result in test [1] was “binds”; in test [2], “binds”; in test [3], “no binding”.

B2: A2J HLP (scFv)
scFv: EVQLLESGGGLVQPGGSLKLSCAASGFTFNVYAMNWVRQAPGKGLEWVARIRSKYNNYATYYADSVKKRFTISRDDSKNTAYLQMNNLKTEDTAVYYCVRHGNFGNSYLSWWAYWGQGTLVTVSSGGGGSGGGGSGGGGSELVVTQEPSLTVSPGGTVTLTCRSSTGAVTSGYYPNWVQQKPGQAPRGLIGATDMRPSGTPARFSGSLLGGKAALTLSGVQPEDEAEYYCALWYSNRWVFGGGTKLTVL
notes: as for B1
B2: the binding result in test [2] is given as “binds”.

B3: EGFR-21-63 LH × A2J HLP (bispecific antibody)
chain: DIVLTQSPASLPVSLGQRATISCRASQSVSSSTYSYIHWYQQKPGQPPKLLITYASNLESGVPARFSGSGSGTDFTLDIHPVEEDDSSTYYCQHSWEIPFTFGSGTKLEIKGGGGSGGGGSGGGGSQVQLQQSGPDLVKPGASVKMSCKASGHTFTDCVIIWVKQRAGQGLEWIGQIYPGTGRSYYNEIFKGKATLTADKSSNTVHIQLSSLTSEDSAVYFCALSTLIHGTWFSYWGQGTLVTVSSGGGGSEVQLLESGGGLVQPGGSLKLSCAASGFTFNVYAMNWVRQAPGKGLEWVARIRSKYNNYATYYADSVKKRFTISRDDSKNTAYLQMNNLKTEDTAVYYCVRHGNFGNSYLSWWAYWGQGTLVTVSSGGGGSGGGGSGGGGSELVVTQEPSLTVSPGGTVTLTCRSSTGAVTSGYYPNWVQQKPGQAPRGLIGATDMRPSGTPARFSGSLLGGKAALTLSGVQPEDEAEYYCALWYSNRWVFGGGTKLTVL
notes: also called EGFR LH × A2J HLP
The Kd is a measure of binding affinity in units of concentration. The low end stands for a tighter complex, the high end for a looser complex. For B3, in test [4], binding was put at a Kd of 0.249 µM.

B4: EGFR-21-63 LH × E2M HLP (bispecific antibody)
chain: DIVLTQSPASLPVSLGQRATISCRASQSVSSSTYSYIHWYQQKPGQPPKLLITYASNLESGVPARFSGSGSGTDFTLDIHPVEEDDSSTYYCQHSWEIPFTFGSGTKLEIKGGGGSGGGGSGGGGSQVQLQQSGPDLVKPGASVKMSCKASGHTFTDCVIIWVKQRAGQGLEWIGQIYPGTGRSYYNEIFKGKATLTADKSSNTVHIQLSSLTSEDSAVYFCALSTLIHGTWFSYWGQGTLVTVSSGGGGSEVQLLESGGGLVQPGGSLKLSCAASGFTFNGYAMNWVRQAPGKGLEWVARIRSKYNNYATYYADSVKERFTISRDDSKNTAYLQMNNLKTEDTAVYYCVRHRNFGNSYLSWFAYWGQGTLVTVSSGGGGSGGGGSGGGGSELVVTQEPSLTVSPGGTVTLTCRSSTGAVTSGYYPNWVQQKPGQAPRGLIGATDMRPSGTPARFSGSLLGGKAALTLSGVQPEDEAEYYCALWYSNRWVFGGGTKLTVL
notes: also called EGFR LH × E2M HLP
In test [4], B4 had a Kd of 2.46 µM.

B5: MCSP-G4 HLP × E2M HLP (bispecific antibody)
chain: QVQLVQSGAEVKRPGASMKVSCKASGYTFTNYYIHWVRQAPGQGLEWMGWINPNSGATNYAQKFQGRVTMTRDTSTSTVYMELSSLRSEDTAVYYCAKSWVSWFASWGQGTLVTVSSGGGGSGGGGSGGGGSELVMTQSPDSLAVSLGERATINCKSSQSVLNSSNNRNYLAWYQQKPGQPPKLLIYWASTRESGVPDRFSGSGSGTDFTLTISGLQAEDVAVYYCQQHYSTPFTFGPGTKVDIKSGGGGSEVQLLESGGGLVQPGGSLKLSCAASGFTFNGYAMNWVRQAPGKGLEWVARIRSKYNNYATYYADSVKERFTISRDDSKNTAYLQMNNLKTEDTAVYYCVRHRNFGNSYLSWFAYWGQGTLVTVSSGGGGSGGGGSGGGGSELVVTQEPSLTVSPGGTVTLTCRSSTGAVTSGYYPNWVQQKPGQAPRGLIGATDMRPSGTPARFSGSLLGGKAALTLSGVQPEDEAEYYCALWYSNRWVFGGGTKLTVL
For the molecule B5, the binding result in test [5] is given as “binds”.
